Results taken from the nanobody polyreactivity screen of Harvey et al. (2022).

Assay: yeast display, Sf9 membrane polyspecificity reagent, FACS + sequencing; frameworks hold sequencing errors
How it was run: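 In a synthetic yeast display library (Saccharomyces cerevisiae BJ5465), nanobody expression was induced with galactose for 36–48 hours. FACS gates were set low and high (top ~1%) using anti-HA fluorescence for expression and streptavidin fluorescence for binding of the Sf9 membrane reagent. Each polyreactivity label is drawn from the gate of origin.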

Row | Sequence | polyreactivity (PSR sort gate)
1 | QVQLQESGGGLVQAGGSLRLSCAASGTISTDSYMGWYRQAPGKESKFVATIGYGGITYYADSVKGRSTISRDSAKNTVYLQMNILKPEDTAVYYCAVNSYYPDHYWYWGRGTQVTVSS | high polyreactivity
2 | QVQLQESGGGLVQAGGSLRLSCAASGTISVHASMGWYRQAPGKERELVAGITDGANTYYADSVKGRFTISRDNSKNTVYLQMNSLIPEDTAVYYCAAYYGTEVHFTYWGQGTQVTVSS | low polyreactivity
3 | QVQLQESGGGLVQAGGSLRLSCAASGTITVLYKMGWFRQAPGKEREFVASINYGTRTYYADSVKGRFTVSRDSAKNTVYLQMNSLKPEDTAVYYCAAAYRWQDVYRYWGQGTQVTVSS | low polyreactivity
4 | QVQLQESGGGLVQAGGSLRLSCAASGTITVLYKMGWFRQAPGKEREFVASINYGTSTYYADSVKGRFTVSRDSAKNTVYLQMNCLKPEDTAVYYFAAAYRWQDVYRYWGQGTQVTVSS | low polyreactivity
5 | QVQLQESGGGLVQAGGSLRLSCAASGYIFPRIYMGWYRQAPGKEREFDAGISYDAITNYADSVKGRFTISLDNAKNTVYLQMNSLKPEDTAVYYCAVSYYGTPLFTYWGQGTQVTVSS | high polyreactivity
6 | QVQLQESGGGLVQAGGSLRLSCAASGYISHADEMGWYRQAPGKEHELVASISNGGSTNYADSVKGRFTISRDNAKNTLYLQMNSLKSEDTAVNYCAAWTGQVDIHYYWGHGTQVTVSS | low polyreactivity
7 | QVQLQESGGGLVQAGGSLRLSCAASGYISIGRRMGWYRQAPGKERELVAGINGGGSTNYADSVKGRSTISRDNAKNTVYLQMNSLKPEDTAVYYCAAYVYDYDWYKYWGQGTQVTVSS | high polyreactivity
8 | QVQLQESGGGLVQAGGSLRLSCASSGSIFWVWRMGWYCQAPGKEREFVAGIGLGATTNYADSVKGRFTISRDNAKNTVYLQMNSLKPGDTAVYYCATVGYYKGNQVLPAKDGDSWGQGTQVTVSS | high polyreactivity
9 | QVQLQESGGGLVQAGGSLRLSCPSSGNISIKLQMGWYRQAPGKERELVATINLGAITYYADSVKGLITISRDNAKNTVYLQVNSLKPEDTAVYYCNAQSRTWRKLGYWGQGTQVTVSS | low polyreactivity
10 | QVQLQESGGGLVQAGGSLRLSCSATGTIFTDRFMGWYRQAPGKERELVAGISPGTSTNYADSVKGRFTISRDNAKNTVYLQMNSLKPEDTAVYYCAADWSTGNTLPYWGQGTQVTVSS | high polyreactivity
11 | QVQLQESGGGLVQAGGSLRLSSAASGTITVLYKMGWFRQPPGKQREFVASINYGTSTYYADSVKGRFTVSRDSAKKTVSLQMNSLKPEDTAVYYCAAAYRWQDVYRYWGQGTQVTVSS | low polyreactivity
12 | QVQLQESGGGLVQAGGSLRLTCAASGSIFLNSEMGWYRQAPGKERELVAAIATGTSTNYADSVKGRFTISRDNAKNTVYLQMNSLKPEDTAVYYCATYHYWGQGTQVTVSS | low polyreactivity
13 | QVQLQESGGGLVQAGGSLRMSCAASGKIFDADIMGWYRQAPGKERELVASNTDGRRTNYADSVKGRYTISRDSEKNTVYLQMNSLKAEDTAEYYCAAIAYPVVPTSFDYDSDYFHWGQGTQVTVSS | high polyreactivity
14 | QVQLQESGGGLVQAGGSLRMSCAASGNIFDADIMGWYRQAPGKERELVASITDGRRTNYADSVKGRYTISRDSEKNTVYLQMNSLKPEDTAVYYCAAIAYPVVPTYFDYDSDYFHWGQGTQVTVSS | high polyreactivity
15 | QVQLQESGGGLVQAGGSLRMSCAASGSIFSEANIGWYRQAPGKERELVATIGQGSTTNYADSVKGRFTISRDNAKNNVDLQLTSRKPEETAVYYCAVDTVDPVGFVYWGQGTQVTVRS | low polyreactivity
16 | QVQLQESGGGLVQAGGSLRQSCAASGNIFLGDTMGWYRPAPGKEREFVAGIARGGNPYYADSVKGRFTISRNNAKNTVYLQKNSLKPEDTAVHYCAVQRSHASDYNYWGQGTQVTVSS | low polyreactivity
17 | QVQLQESGGGLVQAGGSLRQSCAASGYIFPYYSMGSYRQAPGKERGLVACIAAGTTTNYADSVKGRFTISRDNAKKSVYLQMNSLKPEDAAVYYCAALNAFNTGHWYWGQGTQVTVSS | low polyreactivity
18 | QVQLQESGGGLVQAGGSLRQSYAASGYIFPSLAMGWYRQAPGKEREFVAAIGRGSTNNYADSVKGRFTISRDNAKKTAYQQMNSLKPEDTAVYYCAAAASPLTRHLYWGQGTQVTVSS | low polyreactivity
19 | QVQLQESGGGLVQAGGSLSCAASGNIFYIKYMGWYRQEPGKEREFVASIAHGTSTYYADSVKGLFTISRDNAKNTVYLQMNSLKPVDTAVYYCAAVTQSYYSYYYWGQGTQVTVSS | low polyreactivity
20 | QVQLQESGGGLVQAGGSLSLSCAASGSNFVSVTMGWYRQAHGKERELVASIGRGSTTNHADSVKGRFTISRDNAKNIVYLLMNSLKPEDTAVYYCAALESYGKYHGYWGQGTQVTVSS | low polyreactivity
21 | QVQLQESGGGLVQAGGSMRLSCAATGSISELRPMGWYSQAPGKERELVAGISTGGSTNYADSVKGRFTISRDNAKNTVFLQMNSLKPEDTAVYYCAAGSYGEGTYDYWGQGTQVTVRS | high polyreactivity
22 | QVQLQESGGGLVQAGGSPRLSCAASDNIFPDSVMCWYRQAPGKERELVATIGFGATTNSADSVKGRFTISRDNAKNTVYLQMNSLKPEDTAVYSCAADPLNYEYFCYWGQGTQVTVSS | low polyreactivity

Row | Sequence | polyreactivity (PSR sort gate)
23 | QVQLQESGGGLVQAGGSPRLSCAASDNIFPDSVRCWYRQAPGKERELVATIGFGATTNYADSVKGRFTISRDNAKNTVYLQMNSLKPEDTAVYYCAADPLNYEYFCYWGQGTQVTVSS | low polyreactivity
24 | QVQLQESGGGLVQAGGSQRLSCAASGYIFYFQYMGWYRQAPGKELEFVAAISDGANTNYADSVKGRITISRDNAKNTEYLQMNSLKPEDTAVYYCAVYADENDYYIYWGQGTQVTVSS | low polyreactivity
25 | QVQLQESGGGLVQAGGSQRLSCAASGYIIYFQYMGWYRQAPGKEREFVAAISDGANTNYADSVKGRFTISRDNAKNTEYLQMNSLKPEDTAVYYCAVYADENYYYIYWGQGTQVTVSS | low polyreactivity
26 | QVQLQESGGGLVQASGSPRLSCAASGNIFDADIMGWYRQAPGKQCELVASITDGGSTNYADSEKGRFTISSDNAKNTVYLQKNSLKPEDTAVYYCAAISYRDIPTYFDYDSDYFYWGQGTHVTVSS | high polyreactivity
27 | QVQLQESGGGLVQVGGSLRLSCAASGTIFNYGFLGRNRQAPGKERELVASINLGGITNYADSVKGRFTISRDNAKNTVYLQMISLKPEDTAVYYCAAYVVTGQNYGYWGQGTQVTVSS | low polyreactivity
28 | QVQLQESGGGLVQVGGSQRLSCAASGNIFYNYAMVWYRNAQGKEREFDATIKNGTSINYADSVKGRFTISRDNAKNTVYLQMNSLTPEDTAVYYCAADLSWTDNLFYWGQGTQVTVSS | low polyreactivity
29 | QVQLQESGGGMVLAGGSLRLSCSASGTISVYGTMGWYRQAPGKEREFVATIDPGTHTNYADSVKDRFTISRDNAKNTVYLKMNSLKPEVTAVYSCAVEAGSDWPYRYWGQGTQVTVSS | low polyreactivity
30 | QVQLQESGGGMVQAGGSLRLSSAASGYISWADYMGWYRQAPGKERELVAGIGYGSTTYYADSVKGRFTISRDNAKNTAYLQMNSLKPEDTAVYYCAVGCYRDTAYKYWGQGTQVTVSS | low polyreactivity
31 | QVQLQESGGGPVLAGGSLRLSCAASGTIFVRLDMGWYRQAPGKEREFVATIGSASSTYYADSVKGSFTISRDNVKNTVYLQMNSLKPEDTAVYYCAVSAAEQSRHYYWDQGTQVTVSS | low polyreactivity
32 | QVQLQESGGGQVQAGGSLRLSCAASGTIFLYAFMAWYRQAPGKEPKLVAAIDVGTTTKYADSVKGRFTISRDNAKNTVYLQMNSLKPEDTAVYYCAAYLCYLDDLGYWGQGTQVTVSS | low polyreactivity
33 | QVQLQESGGLVQAGCLRLSCAASGSVSYHEAMGWYRQAPGKERELVATISFGANTNYADSVKGRFTISRDNAKNTVYLQMNSLKPEDTAVYYCAAESLFDDYYGYWGQGTQVTVSS | low polyreactivity
34 | QVQLQESGSGLFQAGGSLRQSCAASGAIFPAYLMGWYRQAPGKERELVAGISYGSITYCADSVKGRFNISRDNAKNTVYLKMNSLKPEDTAVFGYWGQGTQVTVSS | low polyreactivity
35 | QVQLQESGSGLVQAGGSLRLSCAASGAIFPAYLMGWYRQPPGKERELVAGISYGSITYCADSVKGRFNISRDNAKNTVYLQMNSLKPEDTAVYYCAVWRPGGDEYYYWGQGTQVTVSS | low polyreactivity
36 | QVQLQESGVCLVQAGGSPRLSCAASDNIFPDSVMCWYRQAPGKERELVATIGFGATTNYADSVKGRFTISRDNAKNTVYLQMNSLKPEDTAVYYCAADPLNYEYFCYWGQGTQVTVSS | low polyreactivity
37 | QVQLQESGVGLVQAGGSLRLSCAASGSISAVGAMGCYRQAPGQEREFAASVNWGTNTNYADSVKGRFTISRDNAKNTLYLQMNSLKPEDTAVYYCAVLPDWETRHDYWGHGTQVTVSS | low polyreactivity
38 | QVQLQESRGGLVQAGGSLRLSCAASGYISLAQTIGWYRQAPGKEREFVASIALGSSTYYTDSVKGSFTISRDNAKTTVYLQMISLQAEDTAVYYCAARVGASYAHDFWGQGTQVTVSS | low polyreactivity
39 | QVQLQESRGGLVQVGGSQRLSCAASGNIFYNYAMGWYRHANGKEREFDATINHGTSINYADSVKGRFTISRDNAKNTLYLQMNSLKPEDTAVSYCAADLSWTDNLFYWGQGTQVTVTS | low polyreactivity
40 | QVQLQESSGGLVQAGGSLRMGCAASGTIFHFHIMGWYRPAPGKEREFVAAISYGTSTYYADSVKGRFTISRDNAKNTVYLQMNSQKPEDTAVYYCAVYDYLEVYCWYWGQGTQVNVSS | low polyreactivity
41 | QVQLQESSGGLVQAGGSLRMSCAASGTNFHFHIMGWYRQAPGKEREFVAAISYGTSTYYADSVKGRFTISRDNAKNTVYLQMNSQKPEDTAVYYCAVYDYLEVYCWYWGQGTQVTVSS | low polyreactivity
42 | QVQLQETGGGLFQAGVSLRLSCATSGSIFWGNAMGWYRQSPGKDRELVAAISWGGGRTYYADSVKGRFTISRDNAKITVYLQINSLKPEDTAVYSCNTRYPYVVSTGYDYWGQGTQVTVSS | high polyreactivity
43 | QVQLQGSGGGLVQAGGSLRLSCAASGYIFQNVPMGWNRQAPGKERELVAGIDNGTSTNYADSVNGRFTISRDNAKKTVYLQMNSLKPEDTAVYYCAAAGQADNTLGYWGQGTQVTVSS | low polyreactivity
44 | QVQLQQSGDGLVQAVGSLRLSCAPSGSLSGYYSMGWYREAPGKVRELVAGIDAFGSSTNYADCVIGRFTISRDKATNTVYLQMKSLKPEDTAVYYCAARPDGVRLFSYWGQGTQVTESS | low polyreactivity
